# T1: human CD81 mutant V135A (human, UniProt P60033 1-236, limits assumed)
# T1 construct: as m30; not shown: C-terminal V5 and 6xHis tags
# T1 sequence: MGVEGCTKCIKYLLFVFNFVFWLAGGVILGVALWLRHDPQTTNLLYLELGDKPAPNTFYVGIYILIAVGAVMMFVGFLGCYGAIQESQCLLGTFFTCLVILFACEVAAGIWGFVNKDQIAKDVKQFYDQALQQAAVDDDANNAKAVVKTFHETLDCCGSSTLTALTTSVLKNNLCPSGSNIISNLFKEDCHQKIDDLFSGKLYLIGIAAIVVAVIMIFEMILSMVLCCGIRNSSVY
# T2: human CD81 mutant A164T (human, UniProt P60033 1-236, limits assumed)
# T2 construct: as m30; not shown: C-terminal V5 and 6xHis tags
# T2 sequence: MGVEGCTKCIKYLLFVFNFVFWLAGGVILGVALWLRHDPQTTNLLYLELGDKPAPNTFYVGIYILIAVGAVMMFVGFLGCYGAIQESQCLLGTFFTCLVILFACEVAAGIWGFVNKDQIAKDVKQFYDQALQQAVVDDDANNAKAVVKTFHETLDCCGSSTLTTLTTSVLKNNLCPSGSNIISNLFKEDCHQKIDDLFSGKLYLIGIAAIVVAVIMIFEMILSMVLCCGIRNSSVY
# T3: human CD81 mutant L165A (human, UniProt P60033 1-236, limits assumed)
# T3 construct: as m30; not shown: C-terminal V5 and 6xHis tags
# T3 sequence: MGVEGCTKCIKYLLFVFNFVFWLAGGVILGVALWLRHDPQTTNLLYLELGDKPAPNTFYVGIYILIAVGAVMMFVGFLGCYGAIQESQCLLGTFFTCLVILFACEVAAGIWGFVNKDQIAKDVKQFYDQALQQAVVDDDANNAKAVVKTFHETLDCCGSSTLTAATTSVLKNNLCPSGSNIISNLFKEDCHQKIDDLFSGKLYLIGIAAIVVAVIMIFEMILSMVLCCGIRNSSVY
# T4: human CD81 mutant V169A (human, UniProt P60033 1-236, limits assumed)
# T4 construct: as m30; not shown: C-terminal V5 and 6xHis tags
# T4 sequence: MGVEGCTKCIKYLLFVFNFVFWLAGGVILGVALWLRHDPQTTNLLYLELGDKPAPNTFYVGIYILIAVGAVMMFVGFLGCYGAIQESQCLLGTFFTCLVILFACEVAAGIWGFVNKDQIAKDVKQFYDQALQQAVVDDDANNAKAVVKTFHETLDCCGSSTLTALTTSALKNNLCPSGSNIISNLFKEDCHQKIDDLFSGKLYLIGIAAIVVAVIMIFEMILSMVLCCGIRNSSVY
# T5: human CD81 mutant A164V (human, UniProt P60033 1-236, limits assumed)
# T5 construct: as m30; not shown: C-terminal V5 and 6xHis tags
# T5 sequence: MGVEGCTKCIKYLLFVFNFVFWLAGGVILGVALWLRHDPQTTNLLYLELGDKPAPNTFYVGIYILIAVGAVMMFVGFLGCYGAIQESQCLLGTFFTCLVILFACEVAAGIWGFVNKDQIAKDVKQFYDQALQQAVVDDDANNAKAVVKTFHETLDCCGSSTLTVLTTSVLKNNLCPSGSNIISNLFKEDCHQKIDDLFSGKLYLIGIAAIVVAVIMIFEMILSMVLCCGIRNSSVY
# T6: human CD81 mutant S168T (human, UniProt P60033 1-236, limits assumed)
# T6 construct: as m30; not shown: C-terminal V5 and 6xHis tags
# T6 sequence: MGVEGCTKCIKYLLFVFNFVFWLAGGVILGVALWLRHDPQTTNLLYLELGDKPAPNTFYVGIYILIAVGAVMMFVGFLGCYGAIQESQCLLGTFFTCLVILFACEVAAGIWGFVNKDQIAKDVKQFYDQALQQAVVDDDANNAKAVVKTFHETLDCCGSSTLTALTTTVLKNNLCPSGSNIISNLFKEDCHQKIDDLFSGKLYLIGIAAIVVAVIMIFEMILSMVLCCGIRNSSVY
# T7: human CD81 mutant V169L (human, UniProt P60033 1-236, limits assumed)
# T7 construct: as m30; not shown: C-terminal V5 and 6xHis tags
# T7 sequence: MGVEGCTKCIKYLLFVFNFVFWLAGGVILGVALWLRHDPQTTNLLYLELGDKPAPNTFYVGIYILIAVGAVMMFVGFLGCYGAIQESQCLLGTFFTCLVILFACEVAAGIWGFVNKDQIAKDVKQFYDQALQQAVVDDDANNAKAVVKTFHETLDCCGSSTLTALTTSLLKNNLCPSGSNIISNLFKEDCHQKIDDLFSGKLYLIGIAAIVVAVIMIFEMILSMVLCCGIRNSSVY
# T8: human CD81 on CD81-expressing cells (Jurkat E6.1, human PBMC, Ramos) (human, UniProt P60033 1-236)
# T8 sequence: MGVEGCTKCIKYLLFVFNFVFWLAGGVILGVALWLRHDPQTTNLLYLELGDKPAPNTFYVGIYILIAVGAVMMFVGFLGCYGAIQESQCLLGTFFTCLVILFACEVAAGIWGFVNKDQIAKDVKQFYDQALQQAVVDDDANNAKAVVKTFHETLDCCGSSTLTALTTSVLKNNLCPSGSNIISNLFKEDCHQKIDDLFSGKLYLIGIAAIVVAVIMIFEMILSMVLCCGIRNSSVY
# T9: human CD81 mutant I194A (human, UniProt P60033 1-236, limits assumed)
# T9 construct: as m30; not shown: C-terminal V5 and 6xHis tags
# T9 sequence: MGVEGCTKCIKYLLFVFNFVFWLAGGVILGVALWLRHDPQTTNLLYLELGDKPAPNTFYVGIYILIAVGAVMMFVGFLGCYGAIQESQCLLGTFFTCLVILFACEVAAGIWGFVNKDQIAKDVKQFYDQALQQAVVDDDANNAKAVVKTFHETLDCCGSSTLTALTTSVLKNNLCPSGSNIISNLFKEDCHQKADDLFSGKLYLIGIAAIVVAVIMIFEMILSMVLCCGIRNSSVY
# T10: human CD81 mutant D137A (human, UniProt P60033 1-236, limits assumed)
# T10 construct: as m30; not shown: C-terminal V5 and 6xHis tags
# T10 sequence: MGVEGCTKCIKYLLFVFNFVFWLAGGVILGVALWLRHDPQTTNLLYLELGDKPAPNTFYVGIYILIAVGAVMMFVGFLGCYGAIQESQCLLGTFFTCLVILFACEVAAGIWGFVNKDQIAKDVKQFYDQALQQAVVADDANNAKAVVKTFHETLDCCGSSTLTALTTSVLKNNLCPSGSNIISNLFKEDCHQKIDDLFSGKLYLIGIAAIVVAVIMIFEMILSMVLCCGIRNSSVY
# T11: human CD81 mutant G158S (human, UniProt P60033 1-236, limits assumed)
# T11 construct: as m30; not shown: C-terminal V5 and 6xHis tags
# T11 sequence: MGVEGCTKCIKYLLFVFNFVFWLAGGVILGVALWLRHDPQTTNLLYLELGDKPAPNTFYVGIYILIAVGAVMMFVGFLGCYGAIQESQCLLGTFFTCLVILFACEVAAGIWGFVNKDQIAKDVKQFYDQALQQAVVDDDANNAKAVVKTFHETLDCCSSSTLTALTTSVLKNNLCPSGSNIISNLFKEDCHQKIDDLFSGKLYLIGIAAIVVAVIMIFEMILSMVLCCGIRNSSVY
# T12: human CD81 mutant V135L (human, UniProt P60033 1-236, limits assumed)
# T12 construct: as m30; not shown: C-terminal V5 and 6xHis tags
# T12 sequence: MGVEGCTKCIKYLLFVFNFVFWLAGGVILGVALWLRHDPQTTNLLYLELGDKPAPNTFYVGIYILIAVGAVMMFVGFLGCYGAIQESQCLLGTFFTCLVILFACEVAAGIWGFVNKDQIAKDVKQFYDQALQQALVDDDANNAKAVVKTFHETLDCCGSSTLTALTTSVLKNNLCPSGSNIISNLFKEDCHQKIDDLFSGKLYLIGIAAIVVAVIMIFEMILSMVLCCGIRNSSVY
# T13: human CD81 mutant H151R (human, UniProt P60033 1-236, limits assumed)
# T13 construct: as m30; also called H151B; not shown: C-terminal V5 and 6xHis tags
# T13 sequence: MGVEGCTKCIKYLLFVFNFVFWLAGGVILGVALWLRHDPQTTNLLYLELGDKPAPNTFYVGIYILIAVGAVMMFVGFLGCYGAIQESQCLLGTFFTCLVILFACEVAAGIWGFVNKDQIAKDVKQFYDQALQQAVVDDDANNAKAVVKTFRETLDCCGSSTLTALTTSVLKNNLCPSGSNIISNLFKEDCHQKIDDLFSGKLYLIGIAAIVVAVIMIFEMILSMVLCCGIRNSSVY
# What was measured:
# human CD81 mutant V135A = target: T1, human CD81 mutant V135A; assay: ELISA
# human CD81 mutant A164T = target: T2, human CD81 mutant A164T; assay: ELISA
# human CD81 mutant L165A = target: T3, human CD81 mutant L165A; assay: ELISA
# human CD81 mutant V169A = target: T4, human CD81 mutant V169A; assay: ELISA
# human CD81 mutant A164V = target: T5, human CD81 mutant A164V; assay: ELISA
# human CD81 mutant S168T = target: T6, human CD81 mutant S168T; assay: ELISA
# human CD81 mutant V169L = target: T7, human CD81 mutant V169L; assay: ELISA
# [1] = target: T8, human CD81 on CD81-expressing cells …; assay: cell-based or functional assay
# human CD81 mutant I194A = target: T9, human CD81 mutant I194A; assay: ELISA
# human CD81 mutant D137A = target: T10, human CD81 mutant D137A; assay: ELISA
# human CD81 mutant G158S = target: T11, human CD81 mutant G158S; assay: ELISA
# human CD81 mutant V135L = target: T12, human CD81 mutant V135L; assay: ELISA
# human CD81 mutant H151R = target: T13, human CD81 mutant H151R; assay: ELISA
relative binding affinity (human CD81 mutant V135A),relative binding affinity (human CD81 mutant A164T),relative binding affinity (human CD81 mutant L165A),relative binding affinity (human CD81 mutant V169A),relative binding affinity (human CD81 mutant A164V),relative binding affinity (human CD81 mutant S168T),relative binding affinity (human CD81 mutant V169L),Jurkat chemotaxis (% of control IgG4) at 0.001 µg/mL [1],Jurkat chemotaxis (% of control IgG4) at 0.01 µg/mL [1],Jurkat chemotaxis (% of control IgG4) at 0.1 µg/mL [1],Jurkat chemotaxis (% of control IgG4) at 1 µg/mL [1],Jurkat chemotaxis (% of control IgG4) at 10 µg/mL [1],relative binding affinity (human CD81 mutant I194A),relative binding affinity (human CD81 mutant D137A),relative binding affinity (human CD81 mutant G158S),relative binding affinity (human CD81 mutant V135L),relative binding affinity (human CD81 mutant H151R),Binder
< 20%,< 20%,< 20%,< 20%,< 20%,< 20%,< 20%,79%,69%,-4%,-11%,-9%,–,–,–,–,–,"002-A07 S115N (antibody, human IgG4 S228P, lambda, V domains shown, IgG4 S228P; glycosylation site mutant of 002-A07 VL) VH: EVQLLESGGGLVQPGGSLRLSCAASGFTFSSNYMSWVRQAPGKGLEWVSYISSSSTYTDYADSVKGRFTISRDNSKNTLYLQMNSLRAEDTAVYYCARYSYGRDNFDYWGQGTLVTVSS VL: QSVLTQPPSASGTPGQRVTISCTGSTSNIGAGYDTHWYQQLPGTAPKLLIYGNSNRPSGVPDRFSGSKSGTSASLAISGLRSEDEADYYCQSYDTNLNVWVFGGGTKLTVLG"
< 20%,< 20%,< 20%,< 20%,< 20%,–,< 20%,91%,86%,16%,1%,2%,< 20%,–,–,–,–,"003-A11 (antibody, human IgG4 S228P, lambda, V domains shown, IgG4 S228P) VH: EVQLLESGGGLVQPGGSLRLSCAASGFTFGSNYMSWVRQAPGKGLEWVSYISSSSTYTDYADSVKGRFTISRDNSKNTLYLQMNSLRAEDTAVYYCARYSYGRDNFDYWGQGTLVTVSS VL: QSVLTQPPSASGTPGQRVTISCTGSTSNIGAGYDTHWYQQLPGTAPKLLIYGNSNRPSGVPDRFSGSKSGTSASLAISGLRSEDEADYYCQSYDTNLSGWVFGGGTKLTVLG"
< 20%,< 20%,< 20%,< 20%,< 20%,–,< 20%,84%,78%,10%,-1%,-10%,–,< 20%,< 20%,< 20%,< 20%,"002-B05 (antibody, human IgG4 S228P, lambda, V domains shown, IgG4 S228P) VH: EVQLLESGGGLVQPGGSLRLSCAASGFTFSSNYMSWVRQAPGKGLEWVSYISSSSTYTDYADSVKGRFTISRDNSKNTLYLQMNSLRAEDTAVYYCARYSYSRDNFDYWGQGTLVTVSS VL: QSVLTQPPSASGTPGQRVTISCTGSTSNIGAGYGTHWYQRLPGTAPKLLIYGNSNRPSGVPDRFSGSKSGTSASLAISGLRSEDEADYYCQSYDTNLSVWVFGGGTKLTVLG"
< 20%,< 20%,< 20%,< 20%,< 20%,–,< 20%,101%,88%,38%,13%,15%,< 20%,–,–,–,–,"002-F07 (antibody, human IgG4 S228P, lambda, V domains shown, IgG4 S228P) VH: EVQLLESGGGLVQPGGSLRLSCAASGFTFSSNYMSWVRQAPGKGLEWVSYISSSSTYTDYADSVKGRFTISRDNSKNTLYLQMNSLRAEDTAVYYCARYSYGRDSFDYWGQGTLVTVSS VL: QSVLTQPFSASGTPGQRVTISCTGSTSNIGAGFDTHWYQQLPGTAPKLLIYGNSNRPSGVPDRFSGSKSGTTASLAISGLRSEDEADYYCQSYDTNLSVWVFGGGTKLTVLG"

# Reference: US20150139990A1 (DAINIPPON SUMITOMO PHARMA, published 2015)
